Binding result, Ki and Kd data for six molecules are collected here from PMC11310207 (Scientific Reports, 2024).

The Ki is a measure of affinity in units of concentration, obtained from inhibition or displacement. Usually Kd stands for a measure of binding affinity in units of concentration. Higher therefore signals lower affinity.

Square brackets hold non-standard residues; d marks the D form. Ends that are not written are not given here. * marks the point of attachment. Dnp = O=[N+]([O-])c1ccc(*)c([N+](=O)[O-])c1; Mca = COc1ccc2c(CC(=O)*)cc(=O)oc2c1

Test [1] addresses human neurolysin (hNln), Ser38-Pro704, N-terminal 6xHis-tag, used in the activity assays (human, UniProt Q9BYT8 38-704). As to the kind of experiment: enzyme inhibition.
The target in test [2] is rNln (Met37–Ser704), C-terminal 6xHis-tag, catalytically active (UniProt P42676 37-704). As to the kind of experiment: fluorescence polarisation. On the technique in general: Fluorescence polarisation rises when a labelled molecule tumbles more slowly, as on binding a larger partner.

On to YGGFLRRIRP [dynorphin A (1–10)], for which, in test [1], the binding result is “binds”.

As for Mca-PLGP[dK](Dnp)-OH [Mca–Pro–Leu–Gly–Pro–D–Lys(DNP)–OH, quenched fluorogenic substrate of Nln], the binding result in test [1] was “binds”.

With YGGFLRRIRPK [dynorphin A (1–11)], the binding result in test [1] is recorded as “binds”.

YGGFLRR [dynorphin A (1–7)]: the binding result in test [1] is “binds”.

Take YGGFLRRIRPKL [dynorphin A (1–12)]: the inhibition constant (Ki) in test [1] amounted to 0.9 µM.

{FAM}-GGFLRRIRPKLK [FAM-GGFLRRIRPKLK, N-terminally FAM-labeled Dyn A (2–13)] returned a Kd in test [2] of 1.47 µM.
